T1: HuCDCP1-C (Homo sapiens, UniProt Q9H5V8)
T1 construct: made in house; host or cells: HEK-293T
T1 sequence (Q9H5V8 30-667): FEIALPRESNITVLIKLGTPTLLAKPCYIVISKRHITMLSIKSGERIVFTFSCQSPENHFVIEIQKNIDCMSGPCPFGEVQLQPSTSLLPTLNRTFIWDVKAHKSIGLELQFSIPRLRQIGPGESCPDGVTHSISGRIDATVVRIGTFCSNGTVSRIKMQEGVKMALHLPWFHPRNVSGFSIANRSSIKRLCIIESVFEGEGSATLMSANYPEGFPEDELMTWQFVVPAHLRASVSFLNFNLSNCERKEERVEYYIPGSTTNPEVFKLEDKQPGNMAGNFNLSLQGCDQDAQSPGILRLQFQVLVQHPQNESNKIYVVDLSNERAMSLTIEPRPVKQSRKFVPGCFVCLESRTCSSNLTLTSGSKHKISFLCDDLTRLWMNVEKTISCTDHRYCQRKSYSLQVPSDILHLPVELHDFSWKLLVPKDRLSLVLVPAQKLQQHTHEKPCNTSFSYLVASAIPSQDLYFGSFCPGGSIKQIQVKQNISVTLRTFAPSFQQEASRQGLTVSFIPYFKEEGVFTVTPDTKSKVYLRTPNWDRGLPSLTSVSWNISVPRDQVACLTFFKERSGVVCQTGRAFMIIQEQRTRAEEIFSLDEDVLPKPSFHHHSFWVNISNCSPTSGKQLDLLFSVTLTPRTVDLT


What was measured:
[1] = molecular target: T1, HuCDCP1-C; experiment: Caterra affinity of humanized anti-CDCP1 antibodies; type: binding; details: HuCDCP1-C 2 μg/ml immobilized
Protocol: The humanized anti-CDCP1 antibodies obtained from Example 11 were subjected to gene cloning, constructed into pTT5 expression vector for a small amount of expression in CHO cells (Expi-CHOS: Gibco A29127), and purified with an Fc affinity column (AT Protein A Diamond Plus. No. AA402312). Antibody purity was analyzed by HPLC and determined by Nanodrop. High-throughput affinity assay was carried out for a small amount of antibodies by Caterra.

[2] = system: PC3 cells; experiment: Endocytosis capacity of murine monoclonal antibody (flow cytometry internalization); type: cell-based, human; details: antibody 1.5 μg/mL; for Internalization PC3 (%) 0.5 h: PC3, 0.5 h at 37° C.; for Internalization PC3 (%) 1 h: PC3, 1 h at 37° C.; for Internalization PC3 (%) 2 h: PC3, 2 h at 37° C.
Protocol: (§1) The endocytosis capacity of the antibody was detected for 0.5 to 2 hours. MDA-MB-231 and PC3 cells were subjected to digestion with 5 mM EDTA, and plated at 4×10^4 cells/well after cell counting. After adding an Fc blocker (Human TruStain FcX™, Biolegend, 422302) and blocking at room temperature for 10 mins, a test antibody (1.5 μg/mL) was added, and the mixture was incubated at 4° C. for 30 mins, centrifuged, and washed twice with PBS+2% FBS, then the cells were divided into four equal portions (labeled as 0 h, 0.5 h, 1 h, 2 h), cells labeled as 0.5 h, 1 h, 2 h time points were added to a cell culture medium at 200 µL/well, and cultured at 37° C. for 0.5 h, 1 h, 2 h, respectively. Cells at 0 h point were centrifuged to remove supernatant, a secondary antibody (PE anti-human IgG Fc Antibody, Biolegend, 410708) was added, and the mixture was incubated at 4° C. for 30 mins, centrifuged, and washed twice with PBS+2% FBS, and detection was performed using a flow cytometer. After incubation of cells labeled as 0.5 h, 1 h, and 2 h points at 37° C. was completed, a secondary antibody was added (in the same steps as those at 0 h point), Geo-MFI of the signal under the same voltage was collected as detection signal at 0 h, and antibody internalization rate was calculated according to the following equation: Internalization (%)=(Geo-MFI (0 h)-Geo-MFI (0.5, 1, 2 h))/Geo-MFI (0 h)×100%.

[3] = system: MDA-MB-231 cells; experiment: as above; type: cell-based, human; details: antibody 1.5 μg/mL; for Internalization MDA-MB-231 (%) 0.5 h: MDA-MB-231, 0.5 h at 37° C.; for Internalization MDA-MB-231 (%) 1 h: MDA-MB-231, 1 h at 37° C.; for Internalization MDA-MB-231 (%) 2 h: MDA-MB-231, 2 h at 37° C.
Protocol: as §1

Row | Molecule | ka [1] | kd [1] | Internalization PC3 (%) 0.5 h [2] | Internalization PC3 (%) 1 h [2] | Internalization PC3 (%) 2 h [2] | Internalization MDA-MB-231 (%) 0.5 h [3] | Internalization MDA-MB-231 (%) 1 h [3] | Internalization MDA-MB-231 (%) 2 h [3]
1 | 5G9: anti-CDCP1 murine monoclonal antibody (hybridoma); VH SEQ ID NO: 241, VL SEQ ID NO: 292 (antibody, V domains shown, 5G9 heavy chain variable region; 5G9 light chain variable region) VH: EVQLQQSGTVLARPGASVKMSCKASGYIFLNYWMHWVKQRPGQGLEWIGGIYPGNTDTTYNQKFKGKAKVTAVTSATTAYMELSSLTNEDSAVYYCIRYDYDRGMDYWGQGTTVTVSS VL: DIVMTQAPAIMSASPGEKVTISCSASSSVSYIYWYQQKPGSSPKPWIYRTSNLASGVPARFSGSGSGTSYSLTISSMEAEDAATYYCQQYHSYPYTFGGGTKLEIK |  |  | 0.00% | 0.00% | 0.00% | 0.00% | 0.00% | 0.00%
2 | 24G4: anti-CDCP1 murine monoclonal antibody (hybridoma); VH SEQ ID NO: 261, VL SEQ ID NO: 311 (antibody, V domains shown, 24G4 heavy chain variable region; 24G4 light chain variable region) VH: EVQLKESGAELVRSGASVKLSCTASGFNIKDYYIHWVKQRPEQGLEWIGWIDPENGDTEYVPKFQGKATLTADTSSNTAYLQLNSLTSEDTAVYYCNPCGTGPWFAYWGQGTTVTVSS VL: DIQMTQSPAILSASPGEKVTMTCRASSSVSYIHWYQQKPGSSPDPWIYATSFLASGVPGRFSGSGSGTSYSLTISRLEAEDAATYYCQQWNSSPFTFGGGTKLEIK |  |  | 46.97% | 67.07% | 82.61% | 55.98% | 70.68% | 83.23%
3 | 6G9: anti-CDCP1 murine monoclonal antibody (hybridoma); VH SEQ ID NO: 244, VL SEQ ID NO: 295 (antibody, V domains shown, 6G9 heavy chain variable region; 6G9 light chain variable region) VH: EVQLKESGPGLVKPSQSLSLTCTVTGYSITSDYAWNWIRQFPGNKLEWMGYIIYSGRTSYNPSLKSRISITRDTSKNQFFLQLNSVTTEDTATYYCAREDYYGGSYGGLDYWGQGTTVTVSS VL: DIVMTQSPLSLPVSLGDQASISCRSSQSIVHSNGNTYLEWYLQKPGQSPKLLIYKVSNRFSGVPDRFSGSGSGTDFTLKISRVEAEDLGVYYCFQGSHVPWTFGGGTKLEIK |  |  | 60.58% | 77.88% | 87.67% | 75.76% | 86.81% | 88.89%
4 | 3F1A11: anti-CDCP1 murine monoclonal antibody (hybridoma); VH SEQ ID NO: 245, VL SEQ ID NO: 296 (antibody, V domains shown, 3F1A11 heavy chain variable region; 3F1A11/3F1A11-H-12 light chain variable region) VH: EVKLVESGPGLVKPSQSLSLTCTVTGYSITSDYAWNWIRQFPGNKLEWMGYISYNTYTSYNPSLKSRISVTRDTSKNQFFLQLKSVTIEDTATYFCAGGDYYGTGAVDYWGQGTTVTVSS VL: EIVLTQSPLSLPVSLGDQASISCRSRQTLVHTNGNTYLDWYLQKPGQSPKLLIYKVSIRFSGVPDRFSGSRSGTDFTLKISRVEAEDLGIYYCFQGSHVPWTFGGGTKLEIK |  |  |  |  | 51.76% |  |  | 38.10%

Continued, in another order:

Row | ka [1] | kd [1] | Molecule | Internalization PC3 (%) 0.5 h [2] | Internalization PC3 (%) 1 h [2] | Internalization PC3 (%) 2 h [2] | Internalization MDA-MB-231 (%) 0.5 h [3] | Internalization MDA-MB-231 (%) 1 h [3] | Internalization MDA-MB-231 (%) 2 h [3]
5 | 136000 M⁻¹ s⁻¹ | 5e-05 s⁻¹ | 1CP-112: humanized anti-CDCP1 antibody produced by 8E5; VH SEQ ID NO: 347, VL SEQ ID NO: 357 (antibody, V domains shown, humanized antibody 8E5 heavy chain variable region 01; humanized antibody 8E5 light chain variable region 01) VH: QVQLVQSGSELKKPGASVKVSCKASGYTLTDFSMHWVRQAPGQGLEWMGWINTETGAPTYADDFKGRFVFSLDTSVSTAYLQISSLKAEDTAVYYCSRGRDYDPHFDYWGQGTLVTVSS VL: EIVLTQSPATLSLSPGERATLSCRASQSISDFLHWYQQKPGQAPRLLIKYASQSISGIPARFSGSGPGSDFTLTISSVEPEDFAVYYCQSAHSFPYTFGQGTKLEIK |  |  |  |  |  | 
6 | 161000 M⁻¹ s⁻¹ | 0.00246 s⁻¹ | 1CP-114: humanized anti-CDCP1 antibody produced by 8E5; VH SEQ ID NO: 349, VL SEQ ID NO: 357 (antibody, V domains shown, humanized antibody 8E5 heavy chain variable region 03; humanized antibody 8E5 light chain variable region 01) VH: QVQLVQSGSELKKPGESVKVSCKASGYTLTDFSMHWVRQAPGQGLEWMGWINTETGAPTYADDFKGRFVLSLDTSVSTAYLQISSLKSEDTAVYYCSRGRDYDPHFDYWGQGTLVTVSS VL: EIVLTQSPATLSLSPGERATLSCRASQSISDFLHWYQQKPGQAPRLLIKYASQSISGIPARFSGSGPGSDFTLTISSVEPEDFAVYYCQSAHSFPYTFGQGTKLEIK |  |  |  |  |  | 
7 | 143000 M⁻¹ s⁻¹ | 5.9e-05 s⁻¹ | 1CP-113: humanized anti-CDCP1 antibody produced by 8E5; VH SEQ ID NO: 348, VL SEQ ID NO: 357 (antibody, V domains shown, humanized antibody 8E5 heavy chain variable region 01; humanized antibody 8E5 light chain variable region 01) VH: QVQLVQSGSELKKPGASVKVSCKASGYTLTDFSMHWVRQAPGQGLEWMGWINTETGAPTYADDFKGRFVLSLDTSVSTAYLQISSLKAEDTAVYYCSRGRDYDPHFDYWGQGTLVTVSS VL: EIVLTQSPATLSLSPGERATLSCRASQSISDFLHWYQQKPGQAPRLLIKYASQSISGIPARFSGSGPGSDFTLTISSVEPEDFAVYYCQSAHSFPYTFGQGTKLEIK |  |  |  |  |  | 
8 | 128000 M⁻¹ s⁻¹ | 4.59e-05 s⁻¹ | 1CP-116: humanized anti-CDCP1 antibody produced by 8E5; VH SEQ ID NO: 347, VL SEQ ID NO: 358 (antibody, V domains shown, humanized antibody 8E5 heavy chain variable region 01; humanized antibody 8E5 light chain variable region 02) VH: QVQLVQSGSELKKPGASVKVSCKASGYTLTDFSMHWVRQAPGQGLEWMGWINTETGAPTYADDFKGRFVFSLDTSVSTAYLQISSLKAEDTAVYYCSRGRDYDPHFDYWGQGTLVTVSS VL: EIVLTQSPATLSLSPGERATLSCRASQSISDFLHWYQQKPGQSPRLLIKYASQSISGIPARFSGSGSGSDFTLTISSVEPEDFAVYYCQSAHSFPYTFGQGTKLEIK |  |  |  |  |  | 

Source: US20260250410A1, “ANTIBODY AND USE THEREOF” (SICHUAN HUIYU PHARMACEUTICAL CO., LTD., priority 2022, published 2026)
